Read-outs that look alike come from different tables or passages of the source. A value given as a limit tells only on which side of the number the result lay.

The target in experiment [1] is SARS-CoV-2 WA-1 S-2P spike protein (SARS-CoV-2) (UniProt P0DTC2).
In experiment [2] the target is SARS-CoV-2 Omicron BA.1 spike protein (on pseudotyped lentivirus) (SARS-CoV-2) (UniProt P0DTC2).
Experiment [3] concerns the target SARS-CoV-2 Omicron BA.2.12.1 spike protein (on pseudotyped lentivirus) (SARS-CoV-2) (UniProt P0DTC2).
Experiment [4] deals with SARS-CoV-2 Omicron BA.2.75 spike protein (on pseudotyped lentivirus) (SARS-CoV-2) (UniProt P0DTC2).
Experiment [5] deals with SARS-CoV-2 Omicron BA.2.75.2 spike protein (on pseudotyped lentivirus) (SARS-CoV-2).
Experiment [6] addresses SARS-CoV-2 Omicron BA.4.6 spike protein (on pseudotyped lentivirus) (SARS-CoV-2).
Experiment [7] deals with SARS-CoV-2 Omicron BA.4/BA.5 spike protein (on pseudotyped lentivirus) (SARS-CoV-2) (UniProt P0DTC2).
Experiment [8] addresses SARS-CoV-2 Omicron BJ.1 spike protein (on pseudotyped lentivirus) (SARS-CoV-2) (UniProt P0DTC2).
For experiment [9], the target named is SARS-CoV-2 Omicron BQ.1.1 spike protein (on pseudotyped lentivirus) (SARS-CoV-2) (UniProt P0DTC2).
In experiment [10] the target is SARS-CoV-2 Omicron XBB spike protein (on pseudotyped lentivirus) (SARS-CoV-2) (UniProt P0DTC2).
The target in experiment [11] is SARS-CoV-2 Omicron BA.4.6 spike protein (on pseudotyped lentivirus) (SARS-CoV-2). The source holds these as a separate data set.
For experiment [12], the target named is SARS-CoV-2 Omicron BA.4/BA.5 spike protein (on pseudotyped lentivirus) (SARS-CoV-2) (UniProt P0DTC2). The source holds these as a separate data set.

For BD55-5514 (antibody), the % inhibition of ACE2 binding in [1] is 99%.

As to CB6 (antibody), the % inhibition of ACE2 binding in experiment [1] came out at 93%.

On to DH1047 (antibody), for which the % inhibition of ACE2 binding in [1] came to 113%.

As to LY-CoV1404 (antibody), the neutralization IC50 was found to be 2 ng/mL in experiment [2]; 1 ng/mL in [3]; 3 ng/mL in [4]; 1 ng/mL in experiment [5]; 0.4 ng/mL in [6]; 1.4 ng/mL in [7]. Further, the neutralization IC50 was above 10 µg/mL in experiment [8], above 10 µg/mL in experiment [9], above 10 µg/mL in experiment [10] and 1 ng/mL in experiment [12]. Moreover, the neutralization IC80 in experiment [2] turned out to be 5 ng/mL; in [3], 4 ng/mL; in [4] it was 0.015 µg/mL; in [5], 5 ng/mL; in experiment [6], 1 ng/mL; in experiment [7], 3 ng/mL. Further, the neutralization IC80 is above 10 µg/mL in experiment [8], above 10 µg/mL in experiment [9], above 10 µg/mL in experiment [10] and 1.4 ng/mL in [11]. Moreover, the % inhibition of ACE2 binding in [1] was found to be 99%.

For the substance S2H97 (antibody), the % inhibition of ACE2 binding in [1] is -3%.

The values are drawn from patent US20260209317A1.
